Data set [1] concerns the molecule itself. The experiment in a line: glycerol density gradient centrifugation.
Data set [2] deals with the molecule itself. The data set can be described thus: cryo-EM structure.

The text below walks through data of publication doi:10.1101/2025.06.14.659634 (bioRxiv, 2025).

B1: erlin1 with a C-terminal Flag tag, overexpressed alone (natural protein, human, UniProt O75477 1-348, looked up)
chain: MNMTQARVLVAAVVGLVAVLLYASIHKIEEGHLAVYYRGGALLTSPSGPGYHIMLPFITTFRSVQTTLQTDEVKNVPCGTSGGVMIYIDRIEVVNMLAPYAVFDIVRNYTADYDKTLIFNKIHHELNQFCSAHTLQEVYIELFDQIDENLKQALQKDLNLMAPGLTIQAVRVTKPKIPEAIRRNFELMEAEKTKLLIAAQKQKVVEKEAETERKKAVIEAEKIAQVAKIRFQQKVMEKETEKRISEIEDAAFLAREKAKADAEYYAAHKYATSNKHKLTPEYLELKKYQAIASNSKIYFGSNIPNMFVDSSCALKYSDIRTGRESSLPSKEALEPSGENVIQNKESTG
Turning to B1, the binding result in data set [1] is reported as “binds”.

B2: erlin1 fused with a twin-Strep tag, co-expressed with erlin2 through a P2A sequence (natural protein, human, UniProt O75477 1-348, looked up)
chain: MNMTQARVLVAAVVGLVAVLLYASIHKIEEGHLAVYYRGGALLTSPSGPGYHIMLPFITTFRSVQTTLQTDEVKNVPCGTSGGVMIYIDRIEVVNMLAPYAVFDIVRNYTADYDKTLIFNKIHHELNQFCSAHTLQEVYIELFDQIDENLKQALQKDLNLMAPGLTIQAVRVTKPKIPEAIRRNFELMEAEKTKLLIAAQKQKVVEKEAETERKKAVIEAEKIAQVAKIRFQQKVMEKETEKRISEIEDAAFLAREKAKADAEYYAAHKYATSNKHKLTPEYLELKKYQAIASNSKIYFGSNIPNMFVDSSCALKYSDIRTGRESSLPSKEALEPSGENVIQNKESTG
modifications: N108 glycosylated (seen in the density map); intramolecular disulfide bond C78-C130
On to B2, for which the binding result in data set [2] is reported as “binds”.

B3: erlin2 with a C-terminal Flag tag, overexpressed alone (natural protein, human, UniProt O94905 1-339, looked up)
chain: MAQLGAVVAVASSFFCASLFSAVHKIEEGHIGVYYRGGALLTSTSGPGFHLMLPFITSYKSVQTTLQTDEVKNVPCGTSGGVMIYFDRIEVVNFLVPNAVYDIVKNYTADYDKALIFNKIHHELNQFCSVHTLQEVYIELFDQIDENLKLALQQDLTSMAPGLVIQAVRVTKPNIPEAIRRNYELMESEKTKLLIAAQKQKVVEKEAETERKKALIEAEKVAQVAEITYGQKVMEKETEKKISEIEDAAFLAREKAKADAECYTAMKIAEANKLKLTPEYLQLMKYKAIASNSKIYFGKDIPNMFMDSAGSVSKQFEGLADKLSFGLEDEPLETATKEN
For B3, the binding result in data set [1] is “binds”.
